We go through 7 molecules from patent US20190202914A1 (HARBOUR BIOMED SHANGHAI, published 2019).

The target in assay [1] is T1, cyno CTLA-4 expressed on 293 cells (293-cynoCTLA-4 cells) (cyno, UniProt G7PL88 36-223).
T1 construct: also called cynomolgus CTLA-4
T1 sequence: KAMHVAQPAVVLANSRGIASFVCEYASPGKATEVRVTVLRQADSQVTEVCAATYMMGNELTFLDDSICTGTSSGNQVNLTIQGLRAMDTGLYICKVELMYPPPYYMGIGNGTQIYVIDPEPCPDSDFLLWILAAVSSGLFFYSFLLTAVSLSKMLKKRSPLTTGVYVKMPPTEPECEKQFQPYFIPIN
Nature of the assay: flow cytometry (MFI) on 293 cells expressing cynomolgus CTLA-4, Alexa 488 anti-human (H+L) detection. As for the experimental part: (§1) The culture medium was aspirated, and the cells were washed twice with HBSS (Hanks Balanced Salt Solution, Invitrogen). The cells were treated with enzyme-free cell dissociation solution (Versene solution, Invitrogen) and collected. The cells were then washed twice with HBSS, cell counts were determined, and cells were resuspended with HBSS at 2×10⁶ cells/mL. BSA was added to the cell suspension to a final concentration of 1%, and the cells were blocked for 30 minutes on ice and then washed twice with HBSS. The cells were collected after centrifugation and resuspended in FACS buffer (HBSS+1% BSA, v/v) at 2×10⁶ cells/mL. 100 μL of the cell suspension were then added to each well of a 96-well plate. 100 μL of purified anti-CTLA-4 antibodies from Example 2 or control antibodies were added to each well of the 96-well plate and incubated for 1 hour on ice, wherein the heavy chain and light chain of the Ipilimumab analogue had amino acid sequences of SEQ ID NO.: 199 and SEQ ID NO.: 200, respectively. Cells were washed twice with FACS buffer, and 100 μL of Alexa 488-labeled anti-human (H+L) antibody (Invitrogen) were added to the 96-well plate and incubated for 1 hour on ice. The samples were washed three times with FACS buffer, and 100 μL of fixation buffer (containing 4% paraformaldehyde, v/v) were added to each well and incubated for 10 minutes. The cells were then washed twice with FACS buffer and resuspended in 100 μL of FACS buffer.

Assay [2] deals with T2, human CTLA-4 expressed on cells (293-hCTLA-4 cells; CTLA-4-expressing CHO-K1 cells) (human, UniProt P16410 36-223).
T2 construct: also called CD152; cell-expressed CTLA-4
T2 sequence: T1 sequence with N14S, M106L
Nature of the assay: flow cytometry (MFI) on 293 cells expressing human CTLA-4, Alexa 488 anti-human (H+L) detection. On the procedure:
as §1

In assay [3] the target is T3, Recombinant mouse CTLA4-his protein (CT4-M52H5, Acro Bio) (mouse, UniProt P09793 36-161).
T3 construct: Bought protein; also called murine CTLA-4; not shown: his tag
Nature of the assay: ELISA on coated recombinant mouse CTLA4-his, HRP anti-human IgG (H+L), OD450. On the procedure:
Recombinant human or mouse CTLA4-his protein (CT4-H5229 for human protein, CT4-M52H5 for mouse protein, Acro Bio) was diluted in PBS to a concentration of 2 μg/mL, and 100 μL of the diluted CTLA-4-his protein was added per well to ELISA microplates, which were incubated overnight at 4° C. to coat the plates with the recombinant proteins. The plates were then blocked with ELISA blocking solution (containing 2% BSA, 0.05% (v/v) Tween-20, pH7.4 PBS buffer, w/v) at 37° C. for two hours and then incubated with anti-CTLA-4 antibodies with various concentrations for 1 hour at 37° C. The plates were washed and incubated with horseradish peroxidase (HRP) conjugated goat anti-human IgG (H+L) antibody (A18805, Life technologies) at 37° C. for one hour. 100 μL of tetramethylbenzidine (TMB) were added, and the plates were incubated at room temperature for 15 minutes. 50 μL of 1N HCl were added to terminate the reaction, and the OD450 nm was determined by an ELISA plate reader.

Assay [4] concerns the target T4, Recombinant human CTLA-4-his protein (CT4-H5229, Acro Bio) (human, UniProt P16410 36-161).
T4 construct: extracellular domain; Bought protein; also called Human CTLA-4^ECD-his; not shown: his tag
T4 sequence (looked up): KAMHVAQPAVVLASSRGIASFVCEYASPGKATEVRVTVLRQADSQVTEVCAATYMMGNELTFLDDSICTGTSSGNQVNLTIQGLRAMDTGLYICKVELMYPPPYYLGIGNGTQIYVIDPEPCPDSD
Briefly: ELISA of 293 supernatants on coated human CTLA4-his.

In assay [5] the target is T2, human CTLA-4 expressed on cells …. Nature of the assay: cell-based blocking assay, flow cytometry: % blocking of biotinylated B7.1 ECD-Fc binding to 293-hCTLA-4 cells. On the procedure: Cell-Based Receptor-Ligand Binding assay was performed to determine the ability of the anti-CTLA-4 antibodies to block the binding of CTLA-4 to its ligands B7.1. Recombinant B7.1^ECD-Fc protein (B71-H5259, Acro Bio) was biotinylated using EZ-LINK NHS-PEG12-Biotin (Thermo Scientific#21312) according to the manufacturer's instruction. Biotinylated B7.1^ECD-Fc protein was concentrated and free label removed by using Amicon centrifugal filter (10 kDa cut off). The extracellular domain of B7.1 corresponded to amino acids Val35-Asn242 of Uniprot database protein P33681.
The culture medium was aspirated, and the cells were washed twice with PBS. The cells were treated with enzyme-free cell dissociation solution (Versene solution, Invitrogen) and collected. Dissociation solution was neutralized by the addition of 8 mL of culture medium, and cell counts were determined. Cells were centrifuged at 300 g for 5 minutes and resuspended in blocking buffer (containing 2% BSA, pH 7.4 PBS buffer, w/v) at 1×10⁶ cells/mL. The cells were blocked for 15 minutes at 37° C. Meanwhile, the wells of 96-well round-bottom plates were blocked with 200 μL of blocking buffer for 1 hour at 37° C. The blocking buffer was discarded, and 200 μL of cells were dispensed to each well of the 96-well plates (2×10⁵ cells/well). The plates were centrifuged at 500 g for 5 minutes, and the supernatants were discarded. The cells were resuspended in 100 μL of anti-CTLA-4 antibodies prepared in blocking buffer with varying concentrations. 100 μL of biotinylated B7.1 ECD-Fc (60 μg/mL in blocking buffer) were added to each well of 96-well plate and mixed by shaking gently. The plates were incubated at 4° C. for 90 minutes and washed twice with 200 μL blocking buffer. The blocking buffer was discarded, and the cells were resuspended in 100 μL of streptavidin-Alexa 488 solution (Invitrogen, 1:500 in blocking buffer) and incubated at 4° C. for 1 hour. The plates were washed three times with blocking buffer and added with 200 μL of blocking buffer.
The mean fluorescence intensity (MFI) was determined using FACS Calibur (BD).

Assay [6] shares this target. Briefly: flow cytometry on 293F-hCTLA-4 cells.

Substitutions are numbered along the chain they refer to.

B1: CL24 (antibody, human IgG1, V domains shown)
VH: EVQLVETGGGLIQPGGSLRLSCAASGLNVSRHYLSWVRQAPGKGLEWVAVIYSGGGIEYVDSVKGRFTISRDNANNTLYLQMRSLRTEDSAVYYCARAIPRPHGSDIWGQGTMVTVSS
notes: Human heavy-chain-only antibody (HCAb): two heavy chains, no light chain
For the molecule B1, the “EC50 (read off the curve)” value in assay [1] was about 1 nM; in assay [2], about 2 nM. The binding result in assay [3] is on record as “no binding (tested: 533.3 nM)”.

B2: CL20 (antibody, human IgG1, V domains shown)
VH: EVQLVESGGGLVQPGGSLRLSCAASGFTFSNYWMHWVRQAPGKGLVWVSRINSDGSNTTYADSVKGRFTISRDNAKNTLYLQMNSLRAEDTAVYYCARWFGEHYYGMDVWGQGTTVTVSS
notes: as for B1
For the molecule B2, the binding result in assay [4] was “binds”.

B3: CL11 (antibody, human IgG1, V domains shown)
VH: EVQLEETGGDLIQPGGSLRLSCTASGFNVSRIYMSWVRQAPGKGLEWVSVIYSGGSIYYADSVRGRFTISRDSSTNTVFLQMNSLRAEDSAVYYCARAVPSAPSSFDIWGQGTMVTVSS
notes: Human heavy-chain-only antibody (HCAb): two heavy chains, no light chain; also called clone 11
Regarding B3, the “IC50 (read off the curve)” value in assay [5] lay within 10 to 20 nM. For the same molecule, the “EC50 (read off the curve)” value in assay [1] is about 1 nM; in assay [2], about 2 nM. Also, the binding result in assay [3] is listed as “no binding (tested: 325.5 nM)”.

B4: CL11-dPTM (antibody, human IgG1, V domains shown)
VH: B3 VH with N28T
notes: HCAb variant with PTM removal
With B4, the binding result in assay [6] is listed as “binds”.

B5: CL30-dPTM (antibody, human IgG1, V domains shown)
VH: B3 VH with N28T, F79Y, S101H, S105N, I108K, M114R
notes: HCAb variant with PTM removal
As for B5, in assay [6], the binding result is “binds”.

B6: CL22-dPTM′ (antibody, human IgG1, V domains shown)
VH: EVQLVESGGGLIQPGGSLRLSCAASGFTVRNNYMSWVRQAPGKGLEWVSVIYSGGSITYADSVKGRFTISRDNSKNTLYLQMNSLRAEDTAVYYCARAVPHAPSAFDIWGQGTMVTVSS
notes: HCAb variant with PTM removal
In the case of B6, the binding result in assay [6] is “binds”.

B7: CL30-dPTM′ (antibody, human IgG1, V domains shown)
VH: B6 VH with R30S, N31R, N32I, T58Y, N73S, L78V, A105N, I108K, M114L
notes: HCAb variant with PTM removal
Consider B7, for which the binding result in assay [6] is given as “binds”.
